Earlier results in paper PMC5811392.

Legend:
p53 DBD (Homo sapiens) = p53 DBD (Homo sapiens) (UniProt P04637)
p53 (Homo sapiens) = p53 (Homo sapiens) (UniProt P04637)
Chain of p53 (Homo sapiens) (P04637 whole entry): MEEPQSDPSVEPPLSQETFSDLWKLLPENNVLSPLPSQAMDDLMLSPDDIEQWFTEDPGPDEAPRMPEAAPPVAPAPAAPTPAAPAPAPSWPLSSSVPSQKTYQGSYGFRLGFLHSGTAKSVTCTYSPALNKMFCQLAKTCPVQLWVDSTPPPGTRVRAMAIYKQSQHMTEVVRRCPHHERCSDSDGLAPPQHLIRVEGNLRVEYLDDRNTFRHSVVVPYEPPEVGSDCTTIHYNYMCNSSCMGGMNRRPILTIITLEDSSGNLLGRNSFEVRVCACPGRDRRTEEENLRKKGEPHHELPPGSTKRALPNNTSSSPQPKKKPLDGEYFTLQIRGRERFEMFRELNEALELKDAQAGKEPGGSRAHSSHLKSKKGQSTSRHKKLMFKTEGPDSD

Chain of BCL-xL (Q07817 whole entry): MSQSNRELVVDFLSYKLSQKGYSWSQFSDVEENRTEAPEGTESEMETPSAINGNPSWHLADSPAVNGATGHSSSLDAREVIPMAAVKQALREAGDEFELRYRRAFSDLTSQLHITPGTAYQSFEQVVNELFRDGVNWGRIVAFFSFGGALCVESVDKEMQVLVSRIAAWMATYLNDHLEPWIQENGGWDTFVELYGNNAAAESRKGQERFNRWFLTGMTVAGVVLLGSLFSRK
Chain of p53 DBD (Homo sapiens) (P04637 94-312): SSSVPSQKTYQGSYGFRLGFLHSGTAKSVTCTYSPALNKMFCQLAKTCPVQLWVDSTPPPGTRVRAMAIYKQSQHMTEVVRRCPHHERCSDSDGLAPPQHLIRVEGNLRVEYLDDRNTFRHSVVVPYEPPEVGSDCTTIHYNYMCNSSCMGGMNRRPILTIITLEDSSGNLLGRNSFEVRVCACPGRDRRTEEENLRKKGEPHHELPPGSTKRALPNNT

Kd (p53 DBD (Homo sapiens)): 17 µM
Kd (p53 (Homo sapiens)): 1 µM
Substance: BCL-xL (from UniProt Q07817)
